In paper PMC1635313 one finds binding data, which are given here for two sequences.

The series deals with T1, CRP (cAMP receptor protein, CAP) (Escherichia coli) (UniProt P0ACJ8).
T1 sequence: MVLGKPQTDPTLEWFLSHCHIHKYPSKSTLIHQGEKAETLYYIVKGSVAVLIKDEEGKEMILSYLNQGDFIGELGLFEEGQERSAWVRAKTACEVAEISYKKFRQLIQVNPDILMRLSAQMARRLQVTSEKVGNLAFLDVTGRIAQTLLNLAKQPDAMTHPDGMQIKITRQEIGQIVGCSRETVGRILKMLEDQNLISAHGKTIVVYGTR
The series can be described thus: EMSA. A general note: Mobility shift assays separate free from complexed probe on a gel.

With “CCAGGTTTCCCAGCACTTTTAATCTGGCGGTTAATGCGACTCCGGCATCCGGTGAAACATCCGGTAAAGGATGCAATACGCCGTCGATACGCAAGCGGATGCGGTAGGC (double strand) [hofB coding fragment]”, the binding entry is “no binding”. The entry for “GCACGACAGGTTTCCCGACTGGAAAGCGGGCAGTGAGCGCAACGCAATTAATGTGAGTTAGCTCACTCATTAGGCACCCCAGGCTTTACACTTTATGCTTCCGGCTCGTATGTTGTGTGGAATTGTG (double strand) [lacZ promoter fragment]” is “binds”.
